Target: mouse IgMκ paraprotein TEPC183
Experiment: flow cytometry on cells
Conditions: mean ± 1 SD from three independent experiments; parent: est. 3.7; read off a plot

response (MFI index (x10^2)): 2.1
Substance: human IgM Fc receptor (FcµR), wild type (from UniProt O60667-1) N66del

Source: publication PMC7873564
